Measured values taken from paper PMC2680719.

Target: m33 T cell receptor (high-affinity CDR3α mutant of 2C, displayed on 58−/− T cell hybridoma cells) (mouse)
Assay: flow cytometry on cells

SIYRYYGL/K^b tetramer (biotinylated SIY/K^b monomers on streptavidin:phycoerythrin) (from UniProt P01887 21-119) (peptide-MHC)
percent of cells positive for tetramer: 84%
